Assay results reported in the DeepSol protein solubility set.

Assay: soluble on expression in E. coli; label from the status in PepcDB or PDB records

Row | Sequence | soluble on expression in E. coli
1 | MTFRNCVAVDLGASSGRVMLARYERECRSLTLREIHRFNNGLHSQNGYVTWDVDSLESAIRLGLNKVCAAGIAIDSIGIDTWGVDFVLLDQQGQRVGLPVAYRDSRTNGLMAQAQQQLGKRDIYQRSGIQFLPFNTLYQLRALTEQQPELIPHIAHALLMPDYFSYRLTGKMNWEYTNATTTQLVNINSDDWDESLLAWSGANKAWFGRPTHPGNVIGHWICPQGNEIPVVAVASHDTASAVIASPLNGSRAAYLSSGTWSLMGFESQTPFTNDTALAANITNEGGAEGRYRVLKNIMGLWLLQRVLQERQINDLPALIAATQALPACRFIINPNDDRFINPDEMCSEIQAACREMAQPIPESDAELARCIFDSLALLYADVLHELAQLRGEDFSQLHIVGGGCQNTLLNQLCADACGIRVIAGPVEASTLGNIGIQLMTLDELNNVDDFRQVVSTTANLTTFTPNPDSEIAHYVALIHSTRQTKELCA | soluble
2 | MTGFAPQAGLPSHSVQVADHFDGNSPRGSPMSSGGHPVDRNRGLQPQKEAFSGPAAGKPFHPQALSKYSRHYSPEDELSAEAQPIAAYKIVSQSNKQLLAGSVSVTSLSSRTTELATADPFALAPFPSKAGKQKP | soluble
3 | MTGTLAPEAMPLLSVRKLTKLFGNFAACNGIDLDIAPGEIHALLGENGAGKSTLVKMLFGVLSPTEGDIIWQGQPVSVGSPSEARRLGIGMVFQHFSLFEALTVAENIALSLDPKISLKEIAREAEQLSRAYGLPLDPNAHVADLSVGERQRIEIVRALLQNPRLIILDEPTSVLTPQEADKLFETLAKLKAEGRSVLYISHRLEEVQRICDRATVLRHGKVTGACDPRKETPASLARMMVGSDVASVSRATGEALGAPQIEVMGLSVAPRTPFAVALKSISMNVRAGEVLAIAGVAGNGQGELFDALSGEYPVYNNDAIHLRGKPVGRLGINGRRLMGAGFVPEERHGHAAVPGMSLSDNLLLARSRSDRKAFLTGGFLRIVRGSTIKAAARRISETMDVRKSGADPLAGSLSGGNLQKFIVGRELDRQPSVLVVNQPTWGVDAGAASRIRQALVDLAKAGSAVIVISQDLDEIFEVATNIAVISDGMLSEAHPVEEMTLEKIGLLMGGIHTSQSGAAQHAHLEHHHHHH | not soluble
4 | MTGVRQDAWTKEEDELLANVVLQYIREGGTQLEAFAEVGRRLSRTAAACGFRWNSCVRKQYKEEIEQAKQERKMRKKETPSTKESEGQAKVETAVKSHLSWAEVLAFLQAEEQKARDARRTADENRALKNDMEQLQQMVTKLQMEKESLQKQLAAIQEEYKTLLSIMERARKMVTDSGKPAPNAVAEGVDEG | not soluble
5 | MTHRPAPDDMAELIYTSGTTGNPKGVILTHRNLVANILQVNRHIPVVTPDFSFLSLLPLSHMFEQMGGFFTPLYRGAAIVYIRTLKPSAIMEALGEEDIYAIIAVPRLLQLLKGSVERELEAKGLGSIFRWLLKVGERMSRGGRSVLFRPIQRKFGRNFALFVSGGAPLDPEVFRFWNGLGFRVVEGYGLTECSPVLTANTMERQVMGSVGLEHHHHHH | soluble
6 | MTICSVNNVTKSFGGNIIFENISLEIKNGERVGLVGRNGSGKTTIFQLLTGMESLDAGAIHMKKGTRIGHVAQIPKFDESMTVYEVLSSAFKIEKELEREMRTLEKDMAEEQESSVLQKLMERYGIIQEKFAFLGGYEIEANIMKVANGLQVTELFPRSFLELSGGEQTKVSLAYMLLQKPDLLLLDEPTNHLDLFAVEWLEQFLKEYNGTVMVISHDRYFLDEVVTKIFDLEDGEIHVYHTNYSRFVEEKEERLLQEFQAYQEQQKKIKKMKEAIKRLREWANQANPPNEGLHKRARSMERALERMQKLKKPILERKQIGLQFEGQDRSGKDVVVIKEVSKGFADHPLFNEVNLHVRFQERAAIVGRNGTGKTTLLKLLLEEIEPDAGEIRIGSSVKIGYLSQHAYGNMKSDVLEAFREYVAVTEGEARHILAKFLFYGPAVFKKVTQLSGGEKMRLRLAQLMYQDINFLILDEPTNHLDIESREVLEEALEQYNGTILAVSHDRYFLNKLFEKTYWIDEHKLFEFAGNYAWARQKWEERLETQVIKQQRQGRKSIETAPVKKKEARNIEEIETELMHVEEDIYTLECTMEHVVDIKRLEQLYEEKTKKELLRAELYNELENIVE | not soluble
7 | MTIGTLPFDQETIRQRASEVNEAAWLTEFRLQALAQATELPMPTPDKTKIDKWDFIGKGDAAKQEPVSSLTELPEAVKNLIDENNSVLVQRTGTTAFVSLADEAKEKGVIFTDIVTAATEHAELVQKYLMKDGVKVDEHRLTALHAALINGGAFVYVPKNVVLETPLQAVFLVDGEEANVYNHVLFVADANSTATYVENYVANENAKGIANIVAEVIVEQGAQVKFGAVDLLAKDVTTYVNRRGVVGRDGRIDWALGLMNDGNTISENVTNLMGDGSYADTKTVTIGRGNQTQNFTTKVVHFGKHSEGWILKHGVQKDSATSIFNGIGKIEHGASKSNAQQSSRVLMLDEKARGDANPILLIDEDDVMAGHAASVGRVDPVQLYYLMSRGIPKREAERLVIHGFLAPVVNELPIEGVKAQLVEVIERKVR | not soluble
8 | MTIHIYNTLTRQKEEFTPLEENKVKMYVCGPTVYNYIHIGNARPPMVFDTVRRYLEYKGYDVQYVSNFTDVDDKLIKAANELGEDVPTIADRFVEAYFEDVTALGCKHATVHPRVTENMDIIIEFIQELVNKGYAYESEGDVYFRTKEFEGYGKLSHQPIADLRHGARIEVGEKKQDPLDFALWKAAKEGEIFWESPWGQGRPGWHIECSAMARKYLGDTIDIHAGGQDLAFPHHENEIAQSEALTGKTFARYWMHNGYININNEKMSKSLGNFILVHDIIKQYDPQLIRFFMLSVHYRHPINFSEELLQSTNNGLERIKTAYGNLKHRMESSTDLTDHNEKWLADLEKFQTAFEEAMNDDFNTANAITELYNVANHANQYLLEEHTSTVVIEAYVKQLETLFDILGLELAQEELLDEEIEALIQKRIEARKNRDFALSDQIRDDLKDRNIILEDTAQGTRWKRG | soluble
9 | MTIPTSYLNHTDAEAARKARATYRDGLVAPTSGIAPGFTQANMIVLPRDWAFDFLLYAQRNPKPCPVLDVSDPGSPTTLLAPGADLRTDLPLYRIWRDGKLAEETADATSAWAERDDLVAFLIGCSFTFETPMVEAGIEIRHMTDKSNVPMYLTNRPCRPAGRLKGNMVVSMRPIPASRVADAATISGRFPAVHGAPVHVGAPEQIGISDLSKPDFGDAVRIEPGEVPVFWACGVTPQAAVMASGVPFAITHAPGHMFITDIPDTAYHALEHHHHHH | soluble
10 | MTISEVSKKYELSADTLRYYERIGLIPPVNRNKSGIRSFTEEDCEWVNFIKCMRGAGLSIETLIEYVAMFQQGSSTIKARKELLIEQRNQLAKRIEEMQKTLERLNFKIDRYEEGIIEKEKVLKSSRNKKMEAVSYE | not soluble
11 | MTISTTSTPHDAVFKSFLRHPDTARNFINIHLPAPLRKLCDLTTLKLEPNSFIDEDLRQYYSDLLWSVKTQEGVGYIYVVIEHQSKPEELMAFRMMRYSIAAMQNHLDAGYKELPLVIPMLFYHGCRSPYPYSLCWLDEFAEPAIARKIYSSAFPLVDITVVPDDEIMQHRKMALLELIQKHIRQRDLLGLVDQIVSLLVTGNTNDRQLKALFNYVLQTGDAQRFRAFIGEITERAPQEKEKLMTIADRLREEGAMQGKHEEALRIAQEMLDRGLDRELVMMVTRLSPDDLIAQSH | not soluble
12 | MTIYFLFGKTGSGKSYIGELLRQLSIVHIDGDNHITQKMRDCLIEDEQMTPEMIDEFVDVLIDVIKTQKTKTPNESFVISQAMYLDKHRLKLLNAIPELEFVMIDVIPVLRASRITNRFRNQESKVSLRYATRMDAFFEYPSHETIRLENNQSSDETLIEQIREKMPALFNMESKEELNSGIQLQFALEHHHHHH | soluble
13 | MTKEEMRNAILDIFQSNPQSVMNYKQVSHLMGVEAAPQKLMVNSLMEDMAVDDILHEIERGRYRYNALGLIVIGTFERRFNGRNSFIPEGGGTPIFIAERNSAHAMDGDKVKVQLFAKRRGRAPEAAVIEIIEQKQATFVGKIQINRDFAFLVTEDRTLANDIFIPKDNLGNAKNGDKVIVRILEWPEQSKNPIGEVQAVLGPAGDNDAEMNAILAEFGLPYVYPQEVEEAADRLDGKITEEELARREDFRSILTFTIDPKDAKDFDDAISFRPLEDDCYEVGVHIADVSHYVTEGGIIDQEAYNRATSIYLVDRTIPMLPERLCNDLCSLRPDEEKYAYSCIFRMNDEAKVLDYRICHSVIKSDRRFAYEEAQAVIETGEGDCKEAILKLNELAQRLRKERFQNGAIAFERKEVRFEIDEKGRPLGVIVKESKEANKLIEEFMLLANRTVARHIGEETQGKRAKTFVYRIHDLPDPDKLETLSDFIRRFGYKLRTTGSNVEVSKSINSLLDNIQNKPEENLISTVAIRSMAKAIYSTDNIGHYGLAFDFYTHFTSPIRRYPDLMVHRLLTKYLSGGSSVDKNDYEEKCKHSSAMEQLAASAERASIKYKQVEFMSEHLGKVFDGVISGVTEWGLYVELKENMCEGLIPIRCLDDDYYEYDDKNFCLIGRRYRHRYSLGDAITVRVAQANLDRKQLDFEPVS | not soluble
14 | MTKGSPGDTPDKASDRAARGASDASDASDAWRRWHEQRVATVSAPYGPLALTGTHWLEDHPDGQLPDIPGRWTTDGDAVLLTAGRADGLTVDGRLLDGEARLTADRGPVGAARVARGERRLVVLVREGLWGVRDFDPAAPARRAFRGIAATPYDPRWSVPGRFTPYDTGRRSVRVPNADGRERGLALGGELAFELDGRAHTLQVGVEDDGSLWAVFADATSGSTSYRFRFLRPAAPDAEGRTTVDLNRALLPPCAFADHFVCPFPPPGNTLGARVEAGERELRLEHHHHHH | soluble
15 | MTKIFAYAIREDEKPFLKEWEDAHKDVEVEYTDKLLTPETVALAKGADGVVVYQQLDYIAETLQALADNGITKMSLRNVGVDNIDMAKAKELGFQITNVPVYSPNAIAEHAAIQAARILRQDKAMDEKVARHDLRWAPTIGREVRDQVVGVVGTGHIGQVFMQIMEGFGAKVITYDIFRNPELEKKGYYVDSLDDLYKQADVISLHVPDVPANVHMINDESIAKMKQDVVIVNVSRGPLVDTDAVIRGLDSGKIFGYAMDVYEGEVGIFNEDWEGKEFPDARLADLIARPNVLVTPHTAFYTTHAVRNMVVKAFDNNLELVEGKEAETPVKVG | soluble
16 | MTKKIVLAGGTGFIGQYLQQRFEENGDEVVIISRRAPHVSWDDSEAVREALEGADMLVNLAGKSVNCRYNEQNKKAILQSRIDTTNILGEAVLACERPPKLWLNSSTATIYRHAEDRAMTEANGELGSGFSENVAKAWEEEFFSFQLPNTRQAALRISIVLGGDGGALTPYRYLTKFGLGGKQGSGKQMVSWIHVEDVFRVIRFIEEQEALEGVINCTSPQPVSNKVLTTAIRRAMNVKVGLPATAWMLEIGTFLLRTESELILKSRWVLPERLLQAGFTFQYETIDDALSEILVQSKSASHLLEHHHHHH | not soluble
17 | MTKKYDLHCHSTASDGVLSPTELVHRAYAQGVNVLALCDHDTIAGIDEAEIAAKEVGIELITGVEISTNWEGRGIHIVGLNFDKTHPKMTALLQSQKALREKRAVEIGDKLEKAGIPNAYDGAKALADGEVTRAHYARYLVQIGKVSNDGQAFKRYLGQGKSAFVKAEWADIPTAIETIHAAGGIAIIAHPLRYNMTGKWVRKLIVDFKAWGGDGMEMADCGQTKDQRQMLARWAKEFDLQGSVGSDFHFPCGWIELGKNLDLVDSVIPVWEKFLEHHHHHH | soluble
18 | MTKLGYVMTKSSAKNFKIYINGSAKGFKNIIISGAKAWNPSPYLNTVSIGNDVRPNYTVSSSGTNKGSVLAVCNTTYYKSNKLISKNEITLYKGFRSLSTNHKIETIVHEFGHGFGLGHVKTKNAIMLDKGFINKTKPQTDDFNGIKALYKLEHHHHHH | soluble
